T1: CADM1 on RPMI-8226 cells (human, UniProt Q9BY67)
T1 sequence (single chain, looked up): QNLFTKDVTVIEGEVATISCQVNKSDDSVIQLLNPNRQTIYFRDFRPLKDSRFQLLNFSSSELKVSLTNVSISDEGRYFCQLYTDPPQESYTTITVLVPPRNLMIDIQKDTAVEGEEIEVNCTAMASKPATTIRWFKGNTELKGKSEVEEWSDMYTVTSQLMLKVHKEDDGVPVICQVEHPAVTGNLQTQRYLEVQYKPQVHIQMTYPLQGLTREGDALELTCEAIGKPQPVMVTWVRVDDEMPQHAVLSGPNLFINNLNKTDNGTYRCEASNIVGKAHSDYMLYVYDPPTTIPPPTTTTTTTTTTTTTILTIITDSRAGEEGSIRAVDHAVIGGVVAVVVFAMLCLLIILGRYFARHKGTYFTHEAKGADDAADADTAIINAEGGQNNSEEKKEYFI

T2: CADM1, endogenous in H929 multiple myeloma cells (human, UniProt Q9BY67 45-442)
T2 construct: Native protein on H929 cells (flow cytometry, siRNA knockdown) and in H929 lysates (IP/MS); also called IGSF4A
T2 sequence: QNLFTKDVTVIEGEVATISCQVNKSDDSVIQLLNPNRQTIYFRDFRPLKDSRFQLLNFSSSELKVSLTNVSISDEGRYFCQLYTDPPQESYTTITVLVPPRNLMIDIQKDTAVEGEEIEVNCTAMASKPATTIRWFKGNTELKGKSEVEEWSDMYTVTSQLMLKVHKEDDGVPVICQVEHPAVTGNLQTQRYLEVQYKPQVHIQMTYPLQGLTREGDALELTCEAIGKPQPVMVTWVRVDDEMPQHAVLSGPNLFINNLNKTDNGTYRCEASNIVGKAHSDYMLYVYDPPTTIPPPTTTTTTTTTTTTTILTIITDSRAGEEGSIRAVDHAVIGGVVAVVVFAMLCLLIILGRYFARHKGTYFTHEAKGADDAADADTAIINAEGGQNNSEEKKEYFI


Tests used:
[1] = target: T1, CADM1 on RPMI-8226 cells; test: flow cytometry, IgG1 on RPMI-8226 cells
Procedure: (§1) Staining protocol. Cells were harvested (5×10⁴ cells per sample), washed once with phosphate-buffered saline (PBS) at RT, and a second time with ice-cold FACS buffer (PBS, 0.5% BSA, 2 mM EDTA, 0.1% NaN₃). Cells were stained in 50 μL of primary antibody for 30 min on ice, washed twice with 100 μL FACS buffer, stained with 50 μL of diluted secondary antibody, washed two more times in FACS, and then resuspended in 50 μL FACS buffer. Samples were acquired on an Accuri C6 Plus or a BD FACSCanto II flow cytometer (both from BD Biosciences). Data were analyzed using FlowJo version 10 software. Primary antibodies: Fab (10 μg/mL), IgG1 (0.1 to 50 μg/mL), or 25 μL polyclonal Fabs from periplasmic extracts. Polyclonal Fabs were produced by diluting bacterial stocks by a factor of 100 in autoinduction media and incubating overnight to induce expression as previously described. […] Viability stains: DAPI (Cell Signaling Technology) or SYTOX AADvanced Dead Cell Stain (Thermo Fisher Scientific). Labeling: The panel of chimeric rabbit/human IgG1s was labeled using the Alexa Fluor 647 Labeling Kit (Thermo Fisher Scientific, #A20173) to facilitate single-step staining. Competition: Unlabeled IgG1s were added at saturating concentrations of 60 μg/mL to block the target receptors, incubating on ice for 30 min, followed by the addition of an equal volume of the Alexa Fluor 647 labeled antibody at 2 μg/mL, and the mixture was incubated on ice for another 30 min.

[2] = target: T3, ICAM1, endogenous in H929 multiple myeloma cells (human, UniProt P05362 28-532); test: IP from H929 cell lysate, LC-MS/MS, heatmap
T3 construct: Native protein on H929 cells (flow cytometry, siRNA knockdown) and in H929 lysates (IP/MS); also called CD54
T3 sequence (P05362 28-532 limits assumed): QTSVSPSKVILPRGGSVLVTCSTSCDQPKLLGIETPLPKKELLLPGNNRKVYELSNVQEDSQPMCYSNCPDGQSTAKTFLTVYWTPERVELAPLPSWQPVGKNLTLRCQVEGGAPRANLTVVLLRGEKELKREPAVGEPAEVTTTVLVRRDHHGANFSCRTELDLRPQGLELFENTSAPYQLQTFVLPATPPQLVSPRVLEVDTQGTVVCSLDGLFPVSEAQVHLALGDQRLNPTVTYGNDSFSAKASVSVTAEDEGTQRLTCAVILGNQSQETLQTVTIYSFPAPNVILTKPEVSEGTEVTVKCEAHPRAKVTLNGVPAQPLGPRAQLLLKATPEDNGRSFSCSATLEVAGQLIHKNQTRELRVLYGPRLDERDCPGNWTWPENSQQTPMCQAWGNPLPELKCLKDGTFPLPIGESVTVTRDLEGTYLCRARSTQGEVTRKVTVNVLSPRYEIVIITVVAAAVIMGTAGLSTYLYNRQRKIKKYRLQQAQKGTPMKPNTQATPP
Procedure: (§2) Immunoprecipitation. […] After 30 min of rocking at 4° C., and lysates were centrifuged at 18,400×g for 20 min at 4° C. Subsequently, 1-mL aliquots of the supernatants were pre-cleared twice with Protein G agarose (Thermo Fisher Scientific) by adding 50 μL of 50% resin slurry and incubating 30 min with end-over-end tumbling at 4° C., followed by centrifugation at 16,000×g for 5 min and pooling of the pre-cleared cell lysate aliquots. Representative mAbs from each cluster were immobilized on Protein G agarose at a ratio of 25 μg IgG1 per 30 μL of 50% slurry, diluted to 500 μL with Dulbecco's PBS (DPBS) and incubated for 1 h at 4° C. with tumbling, followed by centrifugation at 5,000×g for 30 s and 2 washes with lysis buffer. After the last wash, the ˜15 μL of IgG1-coated resin was blocked with 10 μL of 10% BSA (MilliporeSigma). Next, 1 mL of the pooled pre-cleared cell lysate was added to the IgG1-coated resin and incubated for 3 h at 4° C. with tumbling. The immune complexes were pelleted by centrifugation at 2,500×g at 4° C. for 30 s, and gently resuspended to wash for 3 min in 1 mL of lysis buffer, which was repeated once with lysis buffer and twice with an identical wash buffer lacking Triton X-100. Finally, the immune complexes were eluted from the resin with three batch-wise steps using 30 μL of elution buffer (6 or 8 M urea (MilliporeSigma), 20 mM Tris-HCl pH 7.5, and 100 mM NaCl) and incubating 15 min at RT with 450 rpm orbital agitation. Finally, 16 μL of the eluate (˜20%) was analyzed on a reducing SDS-PAGE gel stained with SYPRO Ruby dye (Bio-Rad Laboratories), while the rest was stored at −80° C. prior to LC-MS/MS analysis.
(§3) Protein elutions in 6 or 8 M urea were reduced with 15 mM dithiothreitol at 56° C. for 30 min followed by alkylation with 30 mM iodoacetamide in the dark at RT. The elutions were then diluted to 1 M urea with 50 mM ammonium bicarbonate pH 7.8 and digested overnight at 37° C. following the addition of 4 μg trypsin (Promega).

[3] = target: T2, CADM1, endogenous in H929 multiple …; test: IP from H929 cell lysate, LC-MS/MS, heatmap
Procedure: as §2, §3

[4] = target: T4, PTPRG, endogenous in H929 multiple myeloma cells (human, UniProt P23470 20-1445); test: flow cytometry, H929 + PTPRG siRNA (target knocked down); None 2.13
T4 construct: Native protein on H929 cells (flow cytometry, siRNA knockdown) and in H929 lysates (IP/MS); also called phosphatase receptor type γ
T4 sequence (P23470 20-1445 limits assumed): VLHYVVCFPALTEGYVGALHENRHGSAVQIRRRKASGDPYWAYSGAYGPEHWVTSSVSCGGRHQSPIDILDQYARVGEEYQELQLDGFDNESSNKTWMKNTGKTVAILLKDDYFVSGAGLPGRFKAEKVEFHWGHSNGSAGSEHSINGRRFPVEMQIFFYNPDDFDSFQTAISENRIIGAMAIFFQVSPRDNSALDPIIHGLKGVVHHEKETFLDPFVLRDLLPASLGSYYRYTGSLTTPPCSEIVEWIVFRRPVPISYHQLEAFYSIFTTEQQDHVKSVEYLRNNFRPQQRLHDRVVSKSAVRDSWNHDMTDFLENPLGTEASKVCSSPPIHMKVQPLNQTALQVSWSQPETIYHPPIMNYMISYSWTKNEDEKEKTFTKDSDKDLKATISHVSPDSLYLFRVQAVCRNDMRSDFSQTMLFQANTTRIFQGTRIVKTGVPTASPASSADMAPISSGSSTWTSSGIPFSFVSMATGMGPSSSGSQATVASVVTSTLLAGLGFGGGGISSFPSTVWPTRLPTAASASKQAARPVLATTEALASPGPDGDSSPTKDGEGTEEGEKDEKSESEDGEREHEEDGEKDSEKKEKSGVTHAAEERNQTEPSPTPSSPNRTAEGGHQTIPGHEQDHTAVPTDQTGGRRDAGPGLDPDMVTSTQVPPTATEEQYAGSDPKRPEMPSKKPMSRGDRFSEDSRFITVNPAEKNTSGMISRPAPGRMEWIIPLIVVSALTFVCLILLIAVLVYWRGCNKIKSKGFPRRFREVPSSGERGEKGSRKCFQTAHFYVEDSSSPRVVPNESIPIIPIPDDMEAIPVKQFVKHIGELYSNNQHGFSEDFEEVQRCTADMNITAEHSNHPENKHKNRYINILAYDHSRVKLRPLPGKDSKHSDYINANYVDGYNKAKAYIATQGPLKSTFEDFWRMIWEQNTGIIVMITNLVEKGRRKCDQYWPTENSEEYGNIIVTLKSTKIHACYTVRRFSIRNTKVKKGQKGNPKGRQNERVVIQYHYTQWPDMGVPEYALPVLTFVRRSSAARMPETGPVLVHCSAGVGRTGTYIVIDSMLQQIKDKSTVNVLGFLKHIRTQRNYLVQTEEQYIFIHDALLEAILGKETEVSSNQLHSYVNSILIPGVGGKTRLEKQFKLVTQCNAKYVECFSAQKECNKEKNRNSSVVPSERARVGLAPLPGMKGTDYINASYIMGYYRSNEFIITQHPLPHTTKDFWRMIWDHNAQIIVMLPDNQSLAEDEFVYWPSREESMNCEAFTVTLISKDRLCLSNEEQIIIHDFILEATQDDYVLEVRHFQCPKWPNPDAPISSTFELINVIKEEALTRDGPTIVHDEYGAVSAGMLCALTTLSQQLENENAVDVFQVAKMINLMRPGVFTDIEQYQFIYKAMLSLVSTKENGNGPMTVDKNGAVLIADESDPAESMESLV
Procedure: Recombinant purified ECDs (50-150 ng) of each putative target protein were coated, incubated with 150 ng of the indicated primary antibody, and binding was detected using a peroxidase-conjugated anti-human Fab secondary antibody. Heatmap represents averages of technical triplicates. (8B) Target validation via siRNA knockdown. H929 cells were transfected with siRNA pools targeting the putative antibody targets ICAM1, CADM1, and PTPRG. Cells were then subjected to cognate IgG binding analysis via flow cytometry. (NT, non-targeting siRNA).
as §1

[5] = target: T4, PTPRG, endogenous in H929 multiple …; test: IP from H929 cell lysate, LC-MS/MS, heatmap
Procedure: as §2, §3

Row | Binder | antibody-bound positive cells (%) [1] | binding result [2] | binding result [3] | Cells stained (%) [4] | binding result [5] | other results
1 | HW-25 chimeric rabbit-human IgG1 LA/LA/PG (antibody, V domains shown, Fc-silenced (L234A/L235A/P329G) IgG1, lambda; Alexa Fluor 647-labeled in single-step flow cytometry; Cluster C-1) VH: QSLEESGGRLVTPGTPLTLTCTVSGFSLSSYAMGWVRQAPGKGLEWIGIIDSRGSTYYATWAKGRFTISKTSTTVDLKITSPTTEDTATYFCAREDSYYYDSFNLWGPGTLVTVSS VL: SFVLTQPASVQVNLGQTVSLTCTADTLSRRYASWYQQKPGQAPVLLIYRDTSRPSGVPDRFSGSSSGNTATLTISGAQAGDEADYYCATSDGSGSSYQCVFGGGTQLTVTG |  |  |  | 0.87% |  | 
2 | HW-1 chimeric rabbit-human IgG1 LA/LA/PG (antibody, V domains shown, Fc-silenced (L234A/L235A/P329G) IgG1, lambda; Alexa Fluor 647-labeled in single-step flow cytometry; Prototype of cluster C-1) VH: QSLEESGGGLFKPTDTLTLTCTASGFSLGSSYAISWVRQAPGKELEWIGTIDSGRAYYARWAKSRSTITRNTNENTVTLKMTSLTAADTATYFCARDLIPTYSQDIWGPGTLVTISS VL: SFVLTQPASVQVNLGQTVSLTCTADTLSRRYASWYQQKPGQAPVLLIYRDTSRPSGVPDRFSGSSSGNTATLTISGAQAGDEADYYCATSDGSGNSYQYVFGGGTQLTVTS |  | no binding | no binding | 1.2% |  | 
3 | HW-45 chimeric rabbit-human IgG1 LA/LA/PG (antibody, V domains shown, Fc-silenced (L234A/L235A/P329G) IgG1, lambda; Alexa Fluor 647-labeled in single-step flow cytometry; Prototype of cluster C-45) VH: QKQLVESGGRLVTPGTPLTLTCTVSGFSLSSYAMGWFRQAPGKGLEWIGIINSYGSTYYASWAKGRFTISKTSTTVDLKITSPTTEDTATYFCGRRIGSARFDPWGPGTLVTVSS VL: SFVLTQPASVQVNLGQTVSLTCTADTLSRSYASWYQQKPGQAPVLLIYRDTRRPSGVPDRFSGSSSGNTATLTISGAQAGDEADYYCATSDGSGSSYRLVFGGGTQLTVTG |  | no binding | no binding |  | no binding | 
4 | HW-17 chimeric rabbit-human IgG1 LA/LA/PG (antibody, V domains shown, Fc-silenced (L234A/L235A/P329G) IgG1, lambda; Alexa Fluor 647-labeled in single-step flow cytometry; Cluster C-1) VH: QSLGESRGRLVTPDETLTLTCTVSGIDLSSNAMSWVRQAPGEGLEWIGTINTGGRAYYASWAKGRFTISRTSTTVDLKMTSLTTEDTATYFCARERYSDGRAYDIWGPGTLVTISS VL: SFVLTQPASVQVNLGQTVSLTCTADTLSRRYASWYQQKPGQAPVLLIYTDSNRPSGIPDRFSGSSSGNTATLTISGAQAGDEADYYCATDDGSGSIYQYVFGGGTQLTVTG |  |  |  | 1.25% |  | 
5 | HW-97 chimeric rabbit-human IgG1 LA/LA/PG (antibody, V domains shown, Fc-silenced (L234A/L235A/P329G) IgG1, lambda; Alexa Fluor 647-labeled in single-step flow cytometry; Prototype of cluster C-97) VH: QKQLVESGGRLVTPGTPLTLTCTVTGIDLSSHGMSWVRQAPGKGLEWIGVIYPSGSTWYASWARGRFTISKTSTTVDLKMTSLTTEDTATHFCARGDVGGADNNIWGPGTLVTVSS VL: SFVLTQPASVQVDLGQTVSLTCTAETLSRSYASWYQQKPGQAPVLLIYRDTSRPSGVPDRFSGSSSGNTATLTISGAQAGDEADYYCATSDGSGSSYQYVFGGGTQLTVTG | 98.8% |  |  |  |  | 

Continued, in another order:

Row | antibody-bound positive cells (%) [1] | binding result [2] | binding result [3] | Cells stained (%) [4] | binding result [5] | Binder | other results
6 | 3% | no binding | no binding |  |  | TH9-0022 (antibody, human IgG1, kappa, L234A L235A, V domains shown, also called TH9-022; negative control IgG1) VH: QSLEESGGRLVTPGTPLTLTCTVSGFSLSSYAMNWVRQAPGKGLEWIGIINSYGSTYYASWAKGRFTISKTSTTVDLKITSPTTEDTATYFCARVTYDSYGYGYAPYGMDLWGPGTLVTVSS VL: LVMTQTPSSTSNAVGGTVTIKCQASQSIGNVLAWYQQKPGQPPKLLIYAASTLASGVPSRVGGSRSGTEYTLTISGVQREDAATYYCLGSDSDSDIAFGGGTELEILR | binding result [1]: no binding
7 |  |  |  | 0.55% |  | HW-42 chimeric rabbit-human IgG1 LA/LA/PG (antibody, V domains shown, Fc-silenced (L234A/L235A/P329G) IgG1, lambda; Alexa Fluor 647-labeled in single-step flow cytometry; Cluster C-1) VH: QSVKESEGGLFKPADTLTLTCTVSGFSLSSNEISWVRQAPGEGLEYIGIIDTGGRAYYAVWARSRSTITRNTNLNTVTLKMTSLTAADTATYFCARGGVDTEWYAFSSWGPGTLVTVPS VL: SFVLTQPASVQVNLGQTVSLTCTADTLSRRYASWYQQKPGQAPVLLIFRDTSRPSGVPDRFSGSSSGDTATLTISGAQAGDEADYYCATSDGSGSNYQYVFGGGTQLTVTG | 
8 |  |  |  | 0.87% |  | HW-70 chimeric rabbit-human IgG1 LA/LA/PG (antibody, V domains shown, Fc-silenced (L234A/L235A/P329G) IgG1, lambda; Alexa Fluor 647-labeled in single-step flow cytometry; Cluster C-1) VH: QSLEESGGRLVTPGTPLTLTCTVSGFSLSSNAMSWVRQAPGKGLEWIGTIDGYGYTYYASWAKGRFTVSKTSTTVDLKITSPTTEDTATYFCAREIYLGSNFWGPGTLVTISS VL: SFVLTQPASVQVNLGQTVSLTCTADTLSRRYASWYQQKPGQAPVLLIYRDTSRPSGVPDRFSGSSSGNTATLTISGAQAGDEADYYCATADGSGSSYQFVFGGGTQLTVTG | 
9 |  |  | no binding |  | no binding | HW-113 chimeric rabbit-human IgG1 LA/LA/PG (antibody, V domains shown, Fc-silenced (L234A/L235A/P329G) IgG1, lambda; Alexa Fluor 647-labeled in single-step flow cytometry) VH: QKQLVESGGGLVQPGGSLTLTCTVSGFSLNKYYMGWFRQAPGKGLEWIGVISRSGDTYYSSWAKGRFTISKASTTVDLRITSPTTEDTATYFCARDASSPGFHGDRLDLWGQGTLVTVSS VL: SFVLTQPASVQVNLGQTVSLTCTADTLSRSYASWYQQKPGQAPVLLIYRDTSRPSGVPDRFSGSSSGNTATLTISGAQAGDEADYYCATSDGIGSNYLWVFGGGTQLTVTG | 
10 | 97.6% | no binding |  |  | no binding | HW-101 chimeric rabbit-human IgG1 LA/LA/PG (antibody, V domains shown, Fc-silenced (L234A/L235A/P329G) IgG1, lambda; Alexa Fluor 647-labeled in single-step flow cytometry; Cluster C-97) VH: QEQLVESGGRLVTPGTPLTLTCKASGFSLGKYDMSWVRQAPGKGLEWIGTIYAGSGSTWYASWAKGRFTISKTSTTVDLKMTSLTTEDTATYFCARDFLGVNSIWGPGTLVTISS VL: SFVLTQPASVQVNLGQTVSLTCTADTLSRSYASWYQQKPDQAPVLLIHRDTSRPSGVPDRFSGSNSGNTATLTISGAQAGDEADYYCATSDGSGSNFHFVFGGGTQLTVTG | 
